Test results reported in patent publication US20230056486.
Several values for one entry are separate records, joined by “and”; a condition that tells them apart may be missing. Equal values may be shown once.

Assays:
[1] = system: T1, (GR)10 dipeptide repeat peptide
T1 sequence: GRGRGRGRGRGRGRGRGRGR

Biotin-(PEG)4-(GR)10 = system: T2, Biotin-(PEG)4-(GR)10
T2 sequence: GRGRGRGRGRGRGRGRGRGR

Immobilized TPCK-trypsin on agarose resin; ThermoFisher Cat #20230, sequence (P00760 24-246): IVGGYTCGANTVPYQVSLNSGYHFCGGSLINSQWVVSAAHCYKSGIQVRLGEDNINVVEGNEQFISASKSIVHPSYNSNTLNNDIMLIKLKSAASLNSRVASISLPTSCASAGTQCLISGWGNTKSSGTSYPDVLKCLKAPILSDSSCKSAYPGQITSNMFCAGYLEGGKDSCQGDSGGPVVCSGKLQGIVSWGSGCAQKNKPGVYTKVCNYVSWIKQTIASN

Row | Substance | (GR)10 concentration left at 10 min (LC/MS; 50 µM start) [1] | (GR)10 concentration left at 30 min (LC/MS; 50 µM start) [1] | (GR)10 concentration left at 120 min (LC/MS; 50 µM start) [1] | digestion of biotin-(PEG)4-(GR)10 after 5 minutes, immobilized enzyme (LC/MS) (Biotin-(PEG)4-(GR)10) | (GR)10 concentration left at 0 min (LC/MS; 50 µM start; TFA added before enzyme) [1] | (GR)10 concentration left at 5 min (LC/MS; 50 µM start) [1] | (GR)10 concentration left at 60 min (LC/MS; 50 µM start) [1] | proteolytic activity on (GR)10 of immobilized enzyme after storage at 4° C. for over 2 months (LC/MS) [1] | further results
1 | Factor Xa | – | – | – | – | – | – | – | – | (GR)10 concentration left at 0 min (LC/MS; 50 µM start; TRIS buffer; TFA added before enzyme) [1]: 33.1 µM and 31 µM; (GR)10 concentration left at 5 min (LC/MS; 50 µM start; TRIS buffer) [1]: 35 µM and 23.5 µM; (GR)10 concentration left at 10 min (LC/MS; 50 µM start; TRIS buffer) [1]: 19.4 µM and 13.6 µM
2 | Immobilized TPCK-trypsin on agarose resin; ThermoFisher Cat #20230 | 2.1 µM and 1.6 µM | 0.6 µM and 0.9 µM | 0.1 µM | over 90% digestion of biotin-(PEG)4-(GR)10 after only 5 minutes of incubation time | – | – | – | – | (GR)10 concentration left at 0 min (LC/MS; 50 µM start) [1]: 68.4 µM and 32.7 µM; (GR)10 left in CSF; Commercial Trypsin-Immobilized-5 min reaction (LC/MS; 200 µM (GR)10 in human CSF) (normalized µM) [1]: -0; (GR)10 left in CSF; Commercial Trypsin-Immobilized-605 min reaction [as printed; 60 min meant] (LC/MS; 200 µM (GR)10 in human CSF) (normalized µM) [1]: -0; (GR)10 left; Commercial Trypsin-Immobilized-5 min reaction (LC/MS) [1]: 0 µM; (GR)10 left; Commercial Trypsin-immobilized-60 min reaction (LC/MS) [1]: 0 µM; (GR)10 left; Commercial Trypsin-resin wash from 5 min reaction (LC/MS) [1]: 0 µM; (GR)10 left; Commercial Trypsin-resin wash from 60 min reaction (LC/MS) [1]: 0 µM; digestion of (GR)10 to shorter GR repeats (LC/MS) [1]: Immobilized trypsin at 6.25 TAME Units digests (GR)10 to almost exclusively (GR)1 in 10 to 30 minutes
3 | Kallikrein 6 (neurosin), autoactivated | 50.1 µM and 60.8 µM | 57.8 µM and 65 µM | 54.3 µM and 57.4 µM | – | 27.8 µM and 54.7 µM | 42.2 µM and 57.5 µM | 54.2 µM and 71.5 µM | – | –
4 | elastase | 52.5 µM and 37.8 µM | 43.6 µM and 21.1 µM | – | over 90% digestion of biotin-(PEG)4-(GR)10 after only 5 minutes of incubation time | 53.8 µM and 41.6 µM | 52.6 µM and 50.5 µM | 35.3 µM and 12.2 µM | agarose resin having immobilized elastase did not exhibit substantial (GR)10 proteolytic activity at either 5 minute or 60 minute treatment times | (GR)10 left in CSF; Elastase-Immobilized-5 min reaction (LC/MS; 200 µM (GR)10 in human CSF) (normalized µM) [1]: -0; (GR)10 left in CSF; Elastase-Immobilized-605 min reaction [as printed; 60 min meant] (LC/MS; 200 µM (GR)10 in human CSF) (normalized µM) [1]: -0; (GR)10 left; Elastase-Immobilized-5 min reaction (LC/MS) (µM (normalized to GR concentration)) [1]: -0; (GR)10 left; Elastase-immobilized-60 min reaction (LC/MS) (µM (normalized to GR concentration)) [1]: -0; (GR)10 left; Elastase-in solution-5 min reaction (LC/MS) [1]: 213 µM; (GR)10 left; Elastase-in solution-60 min reaction (LC/MS) (µM (normalized to GR concentration)) [1]: 21.6; (GR)10 left; Elastase-resin wash from 5 min reaction (LC/MS) (µM (normalized to GR concentration)) [1]: -0; (GR)10 left; Elastase-resin wash from 60 min reaction (LC/MS) (µM (normalized to GR concentration)) [1]: -0
5 | thrombin (activated by thermolysin, quenched by EDTA) | 46.7 µM and 59.4 µM | 49.1 µM and 48.6 µM | 45.3 µM and 48.7 µM | – | 37.7 µM and 52 µM | 42.9 µM and 54.8 µM | 56.2 µM and 55.2 µM | – | –
6 | trypsin | BLQ | BLQ | BLQ | over 90% digestion of biotin-(PEG)4-(GR)10 after only 5 minutes of incubation time | 52.8 µM and 48.9 µM | 2.2 µM and 2 µM | BLQ | agarose resin having immobilized trypsin exhibited proteolytic activity after storage at 4 °C for over 2 months | (GR)10 left in CSF; Trypsin-Immobilized-5 min reaction (LC/MS; 200 µM (GR)10 in human CSF) [1]: 0 µM; (GR)10 left in CSF; Trypsin-Immobilized-60 min reaction (LC/MS; 200 µM (GR)10 in human CSF) (normalized µM) [1]: -0; (GR)10 left; Trypsin-Immobilized-5 min reaction (LC/MS) [1]: 0 µM; (GR)10 left; Trypsin-immobilized-60 min reaction (LC/MS) [1]: 0 µM; (GR)10 left; Trypsin-in solution-5 min reaction (LC/MS) [1]: 0 µM; (GR)10 left; Trypsin-in solution-60 min reaction (LC/MS) [1]: 0 µM; (GR)10 left; Trypsin-resin wash from 5 min reaction (LC/MS) [1]: 6.6 µM; (GR)10 left; Trypsin-resin wash from 60 min reaction (LC/MS) [1]: 0 µM; conversion of (GR)10 to shorter GR repeats (LC/MS) [1]: Almost complete conversion to (GR)1 and (GR)2 was observed in 5 to 10 min using either 2.5 or 10 µg/mL of trypsin for concentrations 50 µM of (GR)10
